The target in this test is Recombinant human Rac1 (Q2-L177) (human, UniProt P63000 2-177). In words: AlphaScreen or HTRF; 30 nM His-Rac1 pre-incubated with compound 30 min at room temperature, then 300 nM FLAG-Tiam1, 2 nM anti-His-Eu3+, 20 nM anti-FLAG-XL665; 50 mM Hepes pH 7.6, 100 mM NaCl, 1 mM DTT, 10 mM MgCl2, 0.1% Nonidet P-40; titration of NSC23766, DW0069 or DW0254. The following applies: both partners purified.

B1: Truncated recombinant human Tiam1 (R1033-E1406) (domain or fragment)
chain: RQLSDADKLRKVICELLETERTYVKDLNCLMERYLKPLQKETFLTQDELDVLFGNLTEMVEFQVEFLKTLEDGVRLVPDLEKLEKVDQFKKVLFSLGGSFLYYADRFKLYSAFCASHTKVPKVLVKAKTDTAFKAFLDAQNPKQQHSSTLESYLIKPIQRILKYPLLLRELFALTDAESEEHYHLDVAIKTMNKVASHINEMQKIHEEFGAVFDQLIAEQTGEKKEVADLSMGDLLLHTTVIWLNPPASLGKWKKEPELAAFVFKTAVVLVYKDGSKQKKKLVGSHRLSIYEDWDPFRFRHMIPTEALQVRALASADAEANAVCEIVHVKSESEGRPERVFHLCCSSPESRKDFLKAVHSILRDKHRRQLLKTE
notes: human Tiam1, residues R1033-E1406, pTriIJ-HV vector; also called FLAG-tagged Tiam1; not shown: FLAG, N-terminal, kept
B1: the binding result was “binds”.
